CN117751141A
Changes are numbered by the printed parent chain. Values belong to the binder of their own block, whether it stands above or below them.

Experiments:
[1] = target: T1, CD300c抗原(11832-H08H，义翘神州) (UniProt Q08708); experiment: binding ELISA, CD300c antigen coated at 8 μg/mL, HRP anti-Fc IgG
T1 sequence (looked up): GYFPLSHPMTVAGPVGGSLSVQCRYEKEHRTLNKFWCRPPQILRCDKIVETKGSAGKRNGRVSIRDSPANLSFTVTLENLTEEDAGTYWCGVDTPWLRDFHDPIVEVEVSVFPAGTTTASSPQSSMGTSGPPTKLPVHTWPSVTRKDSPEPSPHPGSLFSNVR

小鼠CD300c抗原 (小鼠 (mouse)) = target: T2, 小鼠CD300c抗原 (小鼠 (mouse)); experiment: cell-based or functional assay
T2 sequence (A2A7V7 whole entry, looked up): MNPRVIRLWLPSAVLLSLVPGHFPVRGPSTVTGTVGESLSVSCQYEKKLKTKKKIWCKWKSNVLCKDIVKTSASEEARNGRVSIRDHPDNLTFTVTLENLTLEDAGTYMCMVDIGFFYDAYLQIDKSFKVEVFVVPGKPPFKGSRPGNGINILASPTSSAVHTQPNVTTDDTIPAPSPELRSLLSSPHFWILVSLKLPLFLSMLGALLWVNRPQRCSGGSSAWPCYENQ

[2] = target: T1, CD300c抗原(11832-H08H，义翘神州); experiment: SPR, CD300c immobilised on CM5 chip (399.2 RU), CL7 0-6.25 μg/mL as analyte
[3] = target: T3, CD300c overexpressed on the surface of 293T cells and THP-1 cells (UniProt Q08708); experiment: flow cytometry (FACS binding) on 293T cells overexpressing CD300c, FITC anti-human IgG (H+L), MFI
T3 sequence (looked up): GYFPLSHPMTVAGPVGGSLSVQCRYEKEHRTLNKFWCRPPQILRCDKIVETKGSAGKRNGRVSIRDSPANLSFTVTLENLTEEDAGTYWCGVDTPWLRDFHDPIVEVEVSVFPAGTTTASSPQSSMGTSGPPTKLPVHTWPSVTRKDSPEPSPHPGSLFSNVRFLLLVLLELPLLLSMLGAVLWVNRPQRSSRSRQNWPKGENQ

[4] = target: T3, CD300c overexpressed on the surface of 293T cells and THP-1 cells; experiment: flow cytometry (FACS binding) on THP-1 cells overexpressing CD300c, FITC anti-human IgG (H+L), MFI

EC50 [1]: 0.067 µg/mL
B1: 抗CD300c单克隆抗体 SK12 (antibody, from another filing)
chain: RVQLLESGGGLVQPGGSLRLSCAASGFTFSSYAMHWVRQAPGKGLEWVSAISGSGGDTYHADSVKGRFTISRDNSKNTLYLQMNSLRAEDTAVYYCTRGLSGFDYWGQGTLVTVSSGGGGSGGGGSGGGGSEIVLTQSPGTLSLSPGERATLSCRASQSISSYLNWYQQKPGQAPRLLIYDASNRAPGIPDRFSGSGSGTDFTLTISRLEPEDFAVYYCQQSYSIPITFGQGTKVEIK

EC50 [1]: 0.031 µg/mL
B2: 抗CD300c单克隆抗体 CL4 (antibody, from another filing, V domains shown)
VH: RVQLLESGGGLVQPGGSLRLSCAASGFTFGSNYMSWVRQAPGKGLEWVSTISGSGTSTYYADSLKGRFTISRDNSKNTLYLQMNSLRAEDTAVYYCARGMWGMDVWGQGTLVTVSS
VL: QSVLTQPPSASGTPGQRVTISCTGKHRHTVNWYQLLPGTAPKLLIYLDSERPSGVPDRFSGSKSGTSASLAISGLRSEDEADYYCQSYDSSSVVFGGGTKLTVL

EC50 [1]: 0.054 µg/mL
B3: 抗CD300c单克隆抗体 SK17 (antibody, from another filing, V domains shown)
VH: EVQLLESGGGLVQPGGSLRLSCAASGFTFSSYYWSWVRQAPGKGLEWVSTITGSGGSTDYANSVKGRFTISRDNSKNTLYLQMNSLRAEDTAVYYCATGGGIFDYWGQGTLVTVSS
VL: EIVLTQSPGTLSLSPGERATLSCQASQTISNYLNWYQQKPGQAPRLLIYDASNRATGIPDRFSGSGSGTDFTLTISRLEPEDFAVYYCQQYNSYPPSFGQGTKVEIK

EC50 [1]: 0.793 µg/mL
B4: 抗CD300c单克隆抗体 CK3 (antibody, from another filing, V domains shown)
VH: RVQLLESGGGLVQPGGSLRLSCAASGFTFSSYAISWVRQAPGKGLEWVSATSGSGRATYYADSVKGRFTISRDNSKNTLYLQMNSLRAEDTAVYYCARDTWWEGYFDLWGQGTLVTVSS
VL: EIVLTQSPGTLSLSPGERATLSCQASHISTHLNWYQQKPGQAPRLLIYGASSRATGIPDRFSGSGSGTDFTLTISRLEPEDFAVYYCQQYNTYPPTFGQGTKVEIK

癌细胞增殖抑制作用 (CT26 mouse colorectal cancer cells, CCK-8, 10 μg/mL antibody, 5 days) (小鼠CD300c抗原 (小鼠 (mouse))): 38 %
EC50 [1]: 0.17 µg/mL
B5: 抗CD300c单克隆抗体 SL18 (antibody, from another filing)
chain: RVQLLESGGGLVQPGGSLRLSCAASGFTFSDYHMHWVRQAPGKGLEWVSTISSSGGYTYYAESVKSRFTISRDNSKNTLYLQMNSLRAEDTAVYYCARSIRLPLDYWGQGTLVTVSSSGGGSGGGGSGGGGSQSVLTQPPSASGTPGQRVTISCSGNNIGSKGVHWYQQLPGTAPKLLIYEDSKRPSGVRDRFSGSKSGTSASLAISGLRSEDEADYYCQSYDSTKGVVFGGGTKLTVL

EC50 [1]: 0.032 µg/mL
B6: 抗CD300c单克隆抗体 CL5 (antibody, from another filing, V domains shown)
VH: RVQLLESGGGLVQPGGSLRLSCAASGFTFSSYAMHWVRQAPGKGLEWVSSISGGGYGTYYADSVKGRFTISRDNSKNTLYLQMNSLRAEDTAVYYCARSTVWAFDIWGQGTLVTVSS
VL: QSVLTQPPSASGTPGQRVTISCSGNNIGSKSVHWYQQLPGTAPKLLIYDVSKRPSERPDRFSGSKSGTSASLAISDLRSEDEADYYCQSFDSSGTWIFGGGTKLTVL

癌细胞增殖抑制作用 (CT26 mouse colorectal cancer cells, CCK-8, 10 μg/mL antibody, 5 days) (小鼠CD300c抗原 (小鼠 (mouse))): 66 %
EC50 [1]: 0.047 µg/mL
Kd [2]: 0.52 nM
EC50 [3]: 2.7 nM
EC50 [4]: 2.6 nM
B7: 抗CD300c单克隆抗体 CL7 (antibody, from another filing, V domains shown)
VH: EVQLLESGGGLVQPGGSLRLSCAASGFTFSRYAMSWVRQAPGKGLEWVSAISGSGGSTYYADSVKGRFTISRDNSKNTLYLQMNSLRAEDTAVYYCARSSQGIFDIWGQGTLVTVSS
VL: QSVLTQPPSASGTPGQRVTISCSGNNIGTRRVHWYQQLPDTAPKLLIYSKNNRPSGVPDRFSGSKSGTSASLAISGLRSEDEADYYCAAWDDSLSGPVFGGGTKLTVL

EC50 [1]: 0.094 µg/mL
B8: 抗CD300c单克隆抗体 CL9 (antibody, from another filing, V domains shown)
VH: B7 VH with R31S, A33Y, M34W, S99I, S100D, Q101V, G102Y, I103G
VL: QSVLTQPPSASGTPGQRVTISCSGSTSNIGTNYVYWYQQLPGTAPKLLIYDNNNRPSGVPDRFSGSKSGTSASLAISGLRSEDEADYYCQTWDSSTDVVFGGGTKLTVL

EC50 [1]: 0.044 µg/mL
B9: 抗CD300c单克隆抗体 SK13 (antibody, from another filing, V domains shown)
VH: RVQLLESGGGLVQPGGSLRLSCAASGFTFSDYAMSWVRQAPGKGLEWVSSISSSSSYIYYTDSVKGRFTISRDNSKNTLYLQMNSLRAEDTAVYYCARGGYGFDYWGQGTLVTVSS
VL: EIVLTQSPGTLSLSPGERATLSCRASQSISSYLNWYQQKPGQAPRLLIYSASSRPQGIPDRFSGSGSGTDFTLTISRLEPEDFAVYYCQQYDDLPFTFGQGTKVEIK

EC50 [1]: 2.42 µg/mL
B10: 抗CD300c单克隆抗体 SK16 (antibody, from another filing, V domains shown)
VH: RVQLLESGGGLVQPGGSLRLSCAASGFTFSSYAMSWVRQAPGKGLEWVSAINGSGGSTLYADSVKGRFTISRDNSKNTLYLQMNSLRAEDTAVYYCARGVSGFDSWGQGTLVTVSS
VL: B9 VL with A25I, S50D, S53L, P55A, Q56T, Y91S, D92Y, D93K, L94T, F96I

癌细胞增殖抑制作用 (CT26 mouse colorectal cancer cells, CCK-8, 10 μg/mL antibody, 5 days) (小鼠CD300c抗原 (小鼠 (mouse))): 15 %
EC50 [1]: 0.039 µg/mL
B11: 抗CD300c单克隆抗体 CL10 (antibody, from another filing, V domains shown)
VH: EVQLLESGGGLVQPGGSLRLSCAASGFTFSSYGMHWVRQAPGKGLEWVSAISGSGGSTYYADSVKGRFTISRDNSKNTLYLQMNSLRAEDTAVYYCASGYGLMDVWGQGTLVTVSS
VL: QSVLTQPPSASGTPGQRVTISCTRSSGIIASNYVQWYQQLPGTAPKLLIYRNNQRPSGVPDRFSGSKSGTSASLAISGLRSEDEADYYCSSYAGNNNLVFGGGTKLTVL

EC50 [1]: 14.7 µg/mL
B12: 抗CD300c单克隆抗体 SK15 (antibody, from another filing, V domains shown)
VH: B10 VH with S35H, L59Y, M83T, V100L, S101Q, S105Y
VL: B3 VL with T28D, S30T, N53S, R54L, A55E, Y91S, N92Y, Y94T, P96I, S97T

EC50 [1]: 0.052 µg/mL
B13: 抗CD300c单克隆抗体 SK11 (antibody, from another filing, V domains shown)
VH: B11 VH with E1R, S31T, S98R, Y100L, G101S, L102G, M103L, V105Y
VL: B3 VL with Q24R, A25S, T28G, S30T, N34A, Y91S, N92Y, Y94T, P96L, S97T

EC50 [1]: 0.033 µg/mL
B14: 抗CD300c单克隆抗体 CK2 (antibody, from another filing, V domains shown)
VH: B11 VH with G56T, T58I, S98R, Y100G, G101T, L102A, M103F, V105Y
VL: EIVLTQSPGTLSLSPGERATLSCRASQRSDNYLAWYQQKPGQAPRLLIYDASNRATGIPDRFSGSGSGTDFTLTISRLEPEDFAVYYCQQSYSTPFTFGQGTKVETK

EC50 [1]: 0.065 µg/mL
B15: 抗CD300c单克隆抗体 SK14 (antibody, from another filing)
chain: EVQLLESGGGLVQPGGSLRLSCAASGFTFSNFAIAWVRQAPGKGLEWVSAISGRGTSTYYADSVKGRFTISRDNSKNTLYLQMNSLRAEDTAVYYCARGVSGFDSWGQGTLVTVSSGGGGSGGGGSGGGGSEIVLTQSPGTLSLSPGERATLSCRASQSISSHLAWYQQKPGQAPRLLIYDTSNRATGIPDRFSGSGSGTDFTLTISRLEPEDFAVYYCQQSYSTPFTFGQGTKVEIK

EC50 [1]: 0.148 µg/mL
B16: 抗CD300c单克隆抗体 CL6 (antibody, from another filing, V domains shown)
VH: EVQLLESGGGLVQPGGSLRLSCAASGFTFSSYGMHWVRQAPGKGLEWVSAISGSGGSTYYADSVKGRFTISRDNSKNTLYLQMNSLRAEDTAVYYCAVSGAGRGFFDYWGQGTLVTVSS
VL: QSVLTQPPSASGTPGQRVTISCSGSSSNIGSNYVYWYQQLPGTAPKLLIYEDNKRPSGVPDRFSGSKSGTSASLAISGLRSEDEADYYCSSYTSSSTVIFGGGTKLTVL

EC50 [1]: 0.056 µg/mL
B17: 抗CD300c单克隆抗体 CK1 (antibody, from another filing, V domains shown)
VH: EVQLLESGGGLVQPGGSLRLSCAASGFTFSRYAMTWVRQAPGKGLEWVSSMSGTGGTTYYADSVKGRFTISRDNSKNTLYLQMNSLRAEDTAVYYCARGAYGFDHWGQGTLVTVSS
VL: EIVLTQSPGTLSLSPGERATLSCRASQSIGNYLNWYQQKPGQAPRLLIYDASNLETGIPDRFSGSGSGTDFTLTISRLEPEDFAVYYCQQSSAIPYTFGQGTKVEIK
